{"source": "the DeepSol protein solubility set"}
{"assay": "soluble on expression in E. coli; label from the status in PepcDB or PDB records"}
{"sequence": "MPGNHSEISLNEQNRVDDNDTKTKTTTRKKKKKKDVTIVDDDDNQFDTTNQLVKSKNRFLGKFRKKPKSPKRWSGSRKGGCFRVMRPRRREGGDDDSSVSSPVSDPNDERFSHEMLRVMLETNDFCSDECNPHR", "soluble on expression in E. coli": "soluble"}
{"sequence": "MGSDKIHHHHHHMNIRTLAAYMVFQCVFLISWSQDLKRVQKTITTLTSKTYHGRGAASNGDGLAAAYLEKQYKETGLKPVDTNFLQPFTYAINTFPGKMKLKSNLGVFKPGIDYIVKSTSGPGKGTCDVYLVDTLIFTDDGKLKEFLQLDVTALVVVYPKKYFKEFTASTPDLLKQLYSAAAIIELQDKKLTMALADQSFGTPVFEVLTTSFSPDIKTISFEIENELIKKHQANNVIGMIEGRSKKDSFIVLTAHYDHLGTLGRKAYFPGANDNASGVSMLLEFAHYYMENPPEYSMLFIAFAGEESGLLGSSYFVAHPLVPLAGIHFLINLDLLGTGDDGIMVVNGSVFKPAYNRLIAINEEKKLLPAIKMRGEAANSDHYPFYKKGVPCFFIYTLGGVAAYHDVQDVAKTLPLTKYREVFQLIVLFNGEK", "soluble on expression in E. coli": "not soluble"}
{"sequence": "MKMKHMKPYTTMKTVLSTLAIALAFGPLHNAQACTRILYETGNQSYISGRSMDWADPSAATALWVFPKGMKRDGTVGDNPIKWSAKYGSIIVSFYDAGTADGMNEKGLVANMLYLKEAKWGDATKAGKPTLTAGAWAQYFLDNYATVEEAVTAMANPPFTIIAPSLPNGDAAALHLSISDVNGDSAIFEYIDGKLVIHHGSQYKVMTNSPTFDQQLALNTYWQQIGGSKFLPGTINAADRFVRASYALSASPKYRDNDLALASVFSQIRAVSVPLGITDPDRPNLAMTLWRTFADHTAKIYYFESAVFPAVSWLDMSKVDLTEGAAPKVVRVERGQPLAGELSAALKPAEPFKWLGAE", "soluble on expression in E. coli": "not soluble"}
{"sequence": "MTSASAPSFNPGKGPGSAVGIALLGFGTVGTEVMRLMTEYGDELAHRIGGPLEVRGIAVSDISKPREGVAPELLTEDAFALIEREDVDIVVEVIGGIEYPREVVLAALKAGKSVVTANKALVAAHSAELADAAEAANVDLYFEAAVAGAIPVVGPLRRSLAGDQIQSVMGIVNGTTNFILDAMDSTGADYADSLAEATRLGYAEADPTADVEGHDAASKAAILASIAFHTRVTADDVYCEGISNISAADIEAAQQAGHTIKLLAICEKFTNKEGKSAISARVHPTLLPVSHPLASVNKSFNAIFVEAEAAGRLMFYGNGAGGAPTASAVLGDVVGAARNKVHGGRAPGESTYANLPIADFGETTTRYHLDMDVEDRVGVLAELASLFSEQGISLRTIRQEERDDDARLIVVTHSALESDLSRTVELLKAKPVVKAINSVIRLERD", "soluble on expression in E. coli": "not soluble"}
{"sequence": "MVTCGSIFIIRIACKDKKGQASGKDNKEKRVFRAVTGNKSESYFPFGHIFIFSQGATRTDEKSFLLSEDYEPKTVGLRCVFWRKHAREIFRFGSKNFYFSRHNEKIFAPRLFQPYSGFFSNDKREKVSMCHR", "soluble on expression in E. coli": "not soluble"}
{"sequence": "TGAQTKLTQTGAITTVNVDHLKANPSSSIVNTLAGNVAGVLAMQTSGQPGKNVSEFWIRGISTFGASTSAYVLVDGFERSMDEINIEDIESFSVLKDASATAIYGSKGANGVVLITTKHGKAG", "soluble on expression in E. coli": "not soluble"}
{"sequence": "MGSDKIHHHHHHMGDKVLKIGSVHQCNCCMGSKTLHPLVSVIDLSKADLSSHTDFKFGFYTILLSECKCEAYRYGHQYYDFSDGTLLCLTPGESISMKDSDNTRPSKGWILAFHPDLICGTALGANIRDYTFFSYRPEEALHVSLREKQVILELLDKINEELQRCIDCYSQKIISKYIELLLDYCERFYERQFITRNEANKKIIERFDRLLDDHFNTIQSQSSDLPTIEECVRVLRLSPAYFNDLLEYETGKSYKEYLQFKRFEIAKEWLINTDKTLSQIAQELGFRNPQYFSRLFKKITGCLPNDFKMPN", "soluble on expression in E. coli": "not soluble"}
{"sequence": "MSLKIKLETYYVCKGELAMNPEVSQLLEQIELRKDELLELTKTLIRFETPAPPARNTNEAQQFVADFLRKRNFSVDKWDVYPNDPNVVGVKKGIESETHKSLIINGHMDVAEVSADEAWEKNPFEPFIKDGWLVGRGAADMKGGLAGALFAIQLLEEAGIELPGDLIFQSVIGEEVGEAGTLQCCRRGYDADFAVVVDTSDLHMQGQGGVITGWITVKSPQTFHDATRRQMIHAGGRLFGASAIEKMMKIVQSLQELERHWAVMKTYEGYPSGTTTINPAVIEGGRHAAFIADECRLWITVHFYPNETHEQIIKEIEEYIGKVAAADPWLSENPPQFKWGGESMIVDRGEIFPSLEIDSEHAAVKTLSSVHESVLSKHAILDMSATVTDGGWFSEFHIPAVIYGPGTLEEAHSINEKVEVEQLIEFTKVITAFIYEWCHTKEGHHHHHH", "soluble on expression in E. coli": "soluble"}
{"sequence": "MESSTDGQVVPQEVLNLPLEKYHEEADDYLDHLLDSLEELSEAHPDCIPDVELSHGVMTLEIPAFGTYVINKQPPNKQIWLASPLSGPNRFDLLNGEWVSLRNGTKLTDILTEEVEKAISKSQ", "soluble on expression in E. coli": "soluble"}
{"sequence": "MGSDKIHHHHHHMPYTIPNNSCVGCDNCRPQCPTGAIKIEDNEYWVDPGLCNNCEGYYSEPQCVIACPTKSPIPWQAKKGRCKVEPRDSTSLDLFSNGKNNPFASAIAIWEACNVLGQRTSLHWETDEDGYLCYSRQVNQGKGAIAFHIQDPFQVNDKATDIAAIEALDIRAACIHLIFAGYATALEQPWEQEFAIDERQIEKYLGMEKRKDLSKAAKLALMKNLVQQACSLIISIDWPQQGRINGFSVTNSRLWHLVDIQHHFQEDNHGCKYLIGLTFKVKAGLWAQYFLNKQACKERTAFYQYGSLPKTLLTTVMSIWQQHEGAVRLMLWLLFKTKMGKEQRITIPTLLRIAYGEEKVALASRQREERKRLLRTFESDLEILNHYGMKPLFDPVTYPPEIQPLWAKLIDLPEDPDEALEFWTNDGGSETRLTDTGPRGKWNLLMNARILAFELPPEWEQQISESEKKKTRTAKAKKKTKATNDLLGEQILQARKNLNLSQRELAKLTGKSQSWIRDIENGRLKAKLEDQLLLRKVLNMASS", "soluble on expression in E. coli": "not soluble"}
{"sequence": "MGSDKIHHHHHHMLPQSFSYKVIRHNMITVAHLINNIVQSGPVIVMRDIIRHMDRDKFHPIVICLRHEEKEDPIVKELRAIDVKCIYLNYSLLSLELQTGRIARKVLSVLRNEKAHILHSHGYHPDLIASHLSRNITSLSTLHNISKDDFTFLKGNLLGSYMNFRYLRSLSKIGHYVAISRAVADYYASHVNKAKERIRIIHNGVDLSFFQIPDEDHQKQLRHRLGLPVSGKIFLVVGRLFSRKDPLIIIRAFKFLLESQKLSGDFYLFFLGDGPLSDACQKEIGDKTHNIRLLGFQKNVHEYMMAADYAITASHSEGFGLNYLEATACGKPVVATDLPPFREICGTGFQDNELFFSVGNQKELEDCILKSLGHTFNPQKVSDIRHHFSAETMSVQYQNYYTELSAPLK", "soluble on expression in E. coli": "not soluble"}
{"sequence": "MRWFLLIVVSALFLSGCMPEIYTHASTPSTIIADNETHIAGRYAFVDVQVLDEYGLPVSGEDVSFYVDGAFLGEATTDTSGVARIGFFSPSEKTYTFTAVAGGVSRSFDVSFTKPKWLFIVWMAADNNLYYYSEDDLSEMRNASGSVSVVVVYDGIGIGDGMLVLDESGNFQAVVGTMGIDFNSGSYTNLEAWLEMILNQFDADHYALVIWDHGSAWIGDSYYISTKVIGYDDFQGTAIAVSNLRKALENALSGDKLDILGFDACLMGSLEVIYELRNTADYIVASSFNEPAEGWDYSFLGEIAPDSTPLDVARMIVDSYREYYSSDTYQNELSLAVYDTSQVEVFVSDLNLFISDLKADLSKVDAVYSDVVKSYIDDYNQTVLVDLGDFIDRWVSSSRITTAPDLSSVVVYSYGEIAGKTLSFPISIFMPESMSCYQDYQTDYQTLSFPYDTQWDEFLEYWLNQKGGLEHHHHHH", "soluble on expression in E. coli": "not soluble"}
{"sequence": "MGSDKIHHHHHHMSRPADKPQPFYFAYGSNMNPAQIEARCRKPEVVATARLPDHRLGFFGSSKIWDGGEESAQPEPGADLWGVVYRLSFHDAEILDTWQKVWLDGTGPYFHFPTQVFDAEGRNYPVLLYKRDVLGPRQKPSAPYLDHIIAGAMARALPPPYIDLLRAIPTCQASTPVPRKASFNPEFFAGLACQCGD", "soluble on expression in E. coli": "not soluble"}
{"sequence": "MNTVSPAKKKVIIIGAGIAGLKAASTLHQNGIQDCLVLEARDRVGGRLQTVTGYQGRKYDIGASWHHDTLTNPLFLEEAQLSLNDGRTRFVFDDDNFIYIDEERGRVDHDKELLLEIVDNEMSKFAELEFHQHLGVSDCSFFQLVMKYLLQRRQFLTNDQIRYLPQLCRYLELWHGLDWKLLSAKDTYFGHQGRNAFALNYDSVVQRIAQSFPQNWLKLSCEVKSITREPSKNVTVNCEDGTVYNADYVIITVPQSVLNLSVQPEKNLRGRIEFQPPLKPVIQDAFDKIHFGALGKVIFEFEECCWSNESSKIVTLANSTNEFVEIVRNAENLDELDSMLEREDSQKHTSVTCWSQPLFFVNLSKSTGVASFMMLMQAPLTNHIESIREDKERLFSFFQPVLNKIMKCLDSEDVIDGMRPIENIANANKPVLRNIIVSNWTRDPYSRGAYSACFPGDDPVDMVVAMSNGQDSRIRFAGEHTIMDGAGCAYGAWESGRREATRISDLLKLEHHHHHH", "soluble on expression in E. coli": "soluble"}
{"sequence": "MMKSIATLISVVLCSFSAWAQTITAAQDPWPPFVMENAQQKGLSVDIVTAAFATQGYTVEFTIMPWSRALNDVKEGKIDILPATWFTQERTAYLTYSDNYLTNQVKFIKKAGDNFEFAGLASLNGKKVGIVRGYGYGDEFMNDPSFFRPESTDLKQNLQKLQAGRIDLAVEDELVAKSIITEAGMNLADFAFTNQAISENPLHVTSGKANPRSEELVAAFNKGLAEIKANGTFDKLLADYGIK", "soluble on expression in E. coli": "not soluble"}
{"sequence": "MAHHHHHHMGTLEAQTQGPGSMTYETILVERDQRVGIITLNRPQALNALNSQVMNEVTSAATELDDDPDIGAIIITGSAKAFAAGADIKEMADLTFADAFTADFFATWGKLAAVRTPTIAAVAGYALGGGCELAMMCDVLIAADTAKFGQPEIKLGVLPGMGGSQRLTRAIGKAKAMDLILTGRTMDAAEAERSGLVSRVVPADDLLTEARATATTISQMSASAARMAKEAVNRAFESSLSEGLLYERRLFHSAFATEDQSEGMAAFIEKRAPQFTHR", "soluble on expression in E. coli": "soluble"}
{"sequence": "MNVLKQQITASIAKDIAFRLGAELNDEEADIFADGYNAAMLQNCNVVTSGKPLTITLPDTSSKAFWSSTGKNETFHPETYKRQVKEAIERSCVIAGIGVEVK", "soluble on expression in E. coli": "not soluble"}
{"sequence": "MTAESGGRDWTGADLAVVVGDYVAQLEKVLAGKPVDRAAHDRTVRFVTGKADGPISWKQGEISAVLSLIGVPILKDQPPRWAYDNALLDAVEEQLAAKPALLAAAVRPAALFTAPSAVPLIEAAPPKPMPMTQRLIQAIQRFDMGSREADDRFLKGLGIASIVAHEARRLSDRGRPDLAGAIRPARGGDPEGCDVISFGLDEIPRLIVVKTTLAGEVAPFGLSQAEYELSRAQPHAFRIRRVYDLLGEARFYRLKPPFGLEHHHHHH", "soluble on expression in E. coli": "not soluble"}
{"sequence": "MPRIEDRLINRTPRNFTIIGNSPNSMSRGKRPHTTPIEVHLLREGIIESQHWAEATVYDDRGRVLMLAGDSTSNAFIRSSLKPFQALAVTSTGTMERYGLTDKDLAIMCGSHQGTIEQARQVFNILWRADIEPQALQCPIPAGQESPLYHGCSGKHAGMLAVCQQQDWPLHSYLQQNSPIQKLILSKVADLLGMPGAELIAAHDDCGAPTYTMELGQIAHLYALLASGQQLGLERVARAMTYYPYFVAGEGCFDTELMQQMEGELVSKSGAEGVQCVGRVGEGLGLAIKVKDGSKRAKYAVAIHLLQQMGWIPPQVAETLSEKFVRLGKYKRLEVIGELAMLLEHHHHHH", "soluble on expression in E. coli": "not soluble"}
{"sequence": "MGFEDGFYTILHLAEGQHPNSKIPGGMYASSKDGKDVPVTAEPLGPQSKIRWWIARDPQAGDDMYTITEFRIDNSIPGQWSRSPVETEVPVYLYDRIKAEETGYTCAWRIQPADHGADGVYHIVGNVRIGSTDWADLREEYGEPQVYMKPVPVIPNVYIPRWFILGYEE", "soluble on expression in E. coli": "soluble"}
